Numbering of substitutions follows the chain as printed. Each block holds one binder with its values, some of them ahead of it.
What was measured:
[1] = target: T1, recombinant human CD70 (Flag-TNC-CD70) (human, UniProt P32970 39-193); experiment: Biacore; recombinant human CD70 on CM5 chip; Fab injected
T1 construct: extracellular domain; Captured by anti-Flag mAb in ELISA; as 'recombinant human CD70' immobilised on Biacore CM5 chips; TNC is for trimerisation; also called recombinant CD70; human recombinant CD70; not shown: Flag tag and TNC trimerisation domain
T1 sequence (looked up): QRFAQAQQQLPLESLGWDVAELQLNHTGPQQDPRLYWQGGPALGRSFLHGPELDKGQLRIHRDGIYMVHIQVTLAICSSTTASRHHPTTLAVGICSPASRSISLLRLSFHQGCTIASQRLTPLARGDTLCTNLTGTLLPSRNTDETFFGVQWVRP
Description: Off-rates of the purified llama-derived anti-CD70 blocking Fabs were determined using the Biacore. Recombinant human CD70 was immobilized on a CM5 Biacore chip. The immobilization was performed in accordance with a method provided by Biacore and by using the NHS/EDC kit (Biacore AB): after activation of the chip, a solution of 50 μg/ml of recombinant CD70 in 10 mM acetate buffer with pH of 5 was prepared and 1 μl of this solution (50ng) was injected resulting in a surface density of approximately 1000 RU.
Fabs for the CD70 mAbs ARGX-110, MDX2H5 and SGN70 were prepared by […] digestion (SGN70 and MDX69A7 are described elsewhere herein, MDX2H5, also referred to as MDX1411, is described in WO2008/074004 FIGS. 1A and 1B). Fabs, at a concentration of approximately 100-400 μg/ml, were diluted 6-fold in hepes-buffered saline (0.1M Hepes, 1.5M NaCl, 30 mM EDTA, 0.5% v/v surfactant P20). They were injected (30 μl) and passed through the flow cells at a flow rate of 30 μl/min. After binding of the Fab to CD70, the off-rate was monitored for a period of 10 minutes. After the dissociation, the flow cell surfaces were regenerated by injecting 5 μl of 10 mM NaOH. Sometimes multiple injections of NaOH were needed to regenerate the surfaces depending on the affinity of the Fabs. Off-rate analysis was done by applying the BIAevaluation software. First, the sensogram of the blank runs were subtracted from those obtained with the coated flow cell. […] Moreover, the off-rate of CD27 for CD70 was determined as well.

[2] = target: T1, recombinant human CD70 (Flag-TNC-CD70); experiment: inhibition ELISA; Flag-TNC-CD70 captured by anti-Flag mAb; competitor CD27-Fc
Description: From selected phage transfected into TG1, individual colonies were picked randomly for growth in 96 well plates. After IPTG induction according to standard protocols periplasmic fractions (penis) containing Fabs were prepared. […] In this assay, Flag-TNC-CD70 is captured by an anti-Flag mAb and binding of CD27-Fc is detected via a biotinylated anti-CD27 mAb and strep-HRP in the absence or presence of CD70 Fabs (FIGS. 2 and 3) or CD70 mAbs (FIG. 4). In FIG. 2B it can be seen that 27B3, which has an identical VH as 9D1, but contains a somewhat different light chain, seems to block binding of CD27 to CD70 more efficiently, which was in line with the better off rate of this Fab as measured on Biacore (data not shown). Table 3 indicates the blocking potency (expressed as IC50) for the various llama-human chimeric mAbs tested in the CD70 inhibition ELISA. […] FIG. 3 is a composite of an experiment testing llama CD70 Fabs for blocking activity (in the inhibition ELISA, see white bars) and for CD70 binding (binding ELISA, black bars). For the binding ELISA, Flag-TNC-CD70 is captured by an anti-Flag mAb and binding of the Fabs is detected using an anti-myc-HRP mAb, which recognizes the MYC tag fused to the C-terminus of the Fd fragment. For comparison purposes, known monoclonal antibodies to CD70 (SGN70 described in US 2010/0129362 A1, clone 1F6; and MDX69A7 described in WO2008/074004 FIGS. 5A and 5B) were tested in parallel. […] Of interest is clone 59D10, which as Fab has no blocking activity, but when converted into a chimeric IgG was antagonistic (see Table 3). Amino acid sequences of the VH and VL domains of binding and blocking llama-derived Fab clones are shown elsewhere herein (Tables 6-9).

[3] = target: T1, recombinant human CD70 (Flag-TNC-CD70); experiment: Biacore; CD70 coated CM5 chip; Fab in periplasmic fraction
Description: Phage eluted from rounds 3, 4 and 5 of selection were transfected into TG1 and plated clonally; individual clones were picked randomly for further analysis. Periplasmic fractions containing Fabs were prepared from IPTG induced small scale cultures the off rate of each Fab was determined using a CD70 coated CM5 chip in a Biacore binding assay. Clones with Fab having off rates similar to that of 27B3 were sequenced.

[4] = target: T2, human CD70 expressed on the surface of cells (human, UniProt P32970 1-193); experiment: cell-based or functional assay
T2 sequence (looked up): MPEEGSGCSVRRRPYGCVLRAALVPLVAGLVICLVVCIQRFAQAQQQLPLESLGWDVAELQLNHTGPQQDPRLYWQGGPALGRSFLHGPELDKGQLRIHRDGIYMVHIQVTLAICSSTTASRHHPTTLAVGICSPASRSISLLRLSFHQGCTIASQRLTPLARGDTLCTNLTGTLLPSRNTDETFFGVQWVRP

B1: 8B12 Fab (Fab, V domains shown)
VH: EVQLVESGGGLVQPGGSLRLSCAASGFTFSVYYMNWVRQAPGKGLEWVSDINNEGDTTYYADSVKGRFTISRDNAKNTLTLQMDSLKPEDTALYYCVRDAGYSNHVPIFDSWGQGTQVIVAS
VL: QTVVTQEPSLSVSPGGTVTLTCGLSSGSVTSSNYPGWYQQTPGQAPRVLIYNTNNRHSGVPSRYSGSISGNKAALTITGAEPEDEADYYCNLHLGSYTPMFGGGTKLTVLG
notes: Llama-derived Fab
koff [1]: 0.00036 s⁻¹

B2: 45B12 Fab (Fab, V domains shown)
VH: B1 VH with V31A, V48I, D56Y, T57E, L93R, P107Q
VL: QAVLTQPSSVSVSLGQTAKITCQGGNLGLYGANWYQQNPGRAPILLIYGDNYRPLGIPERFTISKSGGTATLTIDGAQAEDESDYYCQSADYSGNSVFGGGTKLTVLG
notes: Llama-derived Fab
koff [1]: 0.00021 s⁻¹

B6: 24B6 chimeric llama-human mAb (antibody, human IgG1, V domains shown)
VH: EVQLQESGGGVVQPGGSLRLSCAASGFTFDDYAMSWVRQAPGKGLEWVSSIYMYDSSTYYADSVKGRFTISTDNAKNTVYLQMNSLKSEDTAVYYCAKDINRSYGSSWSHFGPIFSSWGQGTQVTVSS
VL: QPVLTQPSAVSVSLGQTARITCQGGYYTHWYQQKPGQAPVLVIYINNNRPSGIPERFSGSISGNTATLTISGAQVEDEADYYCQSGSSSTIPVFGGGTKLTVLG
IC50 [2]: 0.42 µg/mL

B7: 41D12 Fab (Fab, V domains shown)
VH: EVQLVESGGGLVQPGGSLRLSCAASGFTFSVYYMNWVRQAPGKGLEWVSDINNEGGTTYYADSVKGRFTISRDNSKNSLYLQMNSLRAEDTAVYYCARDAGYSNHVPIFDSWGQGTLVTVSS
VL: QAVVTQEPSLTVSPGGTVTLTCGLKSGSVTSDNFPTWYQQTPGQAPRLLIYNTNTRHSGVPDRFSGSILGNKAALTITGAQADDEAEYFCALFISNPSVEFGGGTQLTVLG
notes: Germlined 27B3 Fab, periplasmic fraction
koff [3]: 0.00023 s⁻¹

B8: 33D8 Fab (Fab, V domains shown)
VH: B1 VH with D56G, D84N
VL: QSALTQPSTVSVSLGQTARITCRGDSLERYGTNWYQQKPGQAPVLVIYDDDSRPSGIPERFSGSSSGATAALTISGAQAEDEGDYYCQSADSSGNAVFGGGTHLTVLG
notes: Llama-derived Fab
koff [1]: 0.00045 s⁻¹

B10: 24E3 Fab (Fab, V domains shown)
VH: B1 VH with D56G, D84N
VL: QAVVTQEPSLSVSPGGTVTLTCGLTSGSVTSDNFPVWYQQTPGQAPRLLIYTINSRHSGVPSRFSGSITGNKAILTITGAQPEDEADYYCALYLENFANEFGGGTRLTVLG
notes: Llama-derived Fab
koff [1]: 8e-05 s⁻¹

B13: 35G2 Fab (Fab, V domains shown)
VH: B7 VH with S75A, S78T, R87K, A88P
VL: B7 VL with A2T, L10F, T11S, D32T, T55S, E87D
notes: as for B7
koff [3]: 0.00017 s⁻¹

B15: 36A9 Fab (Fab, V domains shown)
VH: B1 VH with D56G, A75S, D84N, L93V, A121S
VL: B7 VL with A2T, L10F, T11S, A86S, E87D
notes: as for B7
koff [3]: 0.00013 s⁻¹

B16: 36G2 Fab (Fab, V domains shown)
VH: B7 VH with S75A, Y80T, A97V, L117Q
VL: B7 VL with A82P, D83E, A86S, E87D, F89Y
notes: as for B7
koff [3]: 0.00011 s⁻¹

B17: 35G3 Fab (Fab, V domains shown)
VH: B7 VH with Y80T, R87K, A88P
VL: B7 VL with L10F, T11S, T55S, T78R, F89Y
notes: as for B7
koff [3]: 0.00017 s⁻¹

B20: 36D6 Fab (Fab, V domains shown)
VH: B1 VH with D56G, T80Y, D84N, Q117T, I119T, A121S
VL: B7 VL with A2T, D32T, T55S, A86S, E87D
notes: as for B7
koff [3]: 0.00014 s⁻¹

B21: 35G1 Fab (Fab, V domains shown)
VH: B7 VH with L18V, S75A, S78T, R87K, A88P, S121A
VL: B7 VL with A2T, L10F, T11S, T55S, A86S, E87D
notes: as for B7
koff [3]: 0.00023 s⁻¹

B23: 9B2 chimeric llama-human mAb (antibody, human IgG1, V domains shown)
VH: QLQVVESGGGLMQPGGSLRLSCAASGFTFSGSAMSWVRQAPGKGLEWVSSIYSHSMYTYYADSVKSRFTISTDNAKNTLYLQMNSLKPDDTAVYYCAASSDYEGLFVSWGQGTQVTVSS
VL: QAVLTQPPSLSASPGSSVRLTCTLNSANSVGSYDISWYQQKAGSPPRYLLYYYSDSLSHQGSGVPSRFSGSTDASANAGLLLISGLQPEDEADYYCSAYNRGSHVFGGGTKLTVLG
IC50 [2]: 0.126 µg/mL
IC50 (ng/ml), IL-8 secretion in Raji / HT1080-CD27 co-culture assay [4]: 213 ng/mL

Further lines, results first:

koff [1]: 0.0002 s⁻¹
B3: 45F8 Fab (Fab, V domains shown)
VH: B1 VH with V31A, V48I, D56Y, T57E, L93R, P107Q
VL: B2 VL with K19N, I47F, R53M, D81N, A90S, S93P
notes: Llama-derived Fab

koff [1]: 0.00021 s⁻¹
B4: 45D9 Fab (Fab, V domains shown)
VH: B1 VH with V31A, V48I, D56Y, T57E, L93R, P107Q
VL: B2 VL with G28W, Y52Q
notes: Llama-derived Fab

koff [1]: 0.00139 s⁻¹
B5: 59D10 Fab (Fab, V domains shown)
VH: EVQLVESGGGLVQPGGSLRLSCAASELSFSISEMTWVRQAPGKGLEWVSGISGVTGGSSTSYADSVKGRFTISRDNDKNTLYLQMNSLIPEDTAVYYCATTSGTYYFIPEYEYWGQGTQVTVSS
VL: QSVLTQPPSVSGSPGKTVTISCAGTSSDVGYGYYVSWYQQFPGMAPKLLIYDVNKRASGIADRFSGSKAGNTASLTISGLQSEDEADYYCASYRSSANAVFGGGTHLTVLG
notes: Llama-derived Fab

koff [3]: 0.0002 s⁻¹
B9: 53G1 Fab (Fab, V domains shown)
VH: B1 VH with D56G, T80Y, D84N, L93V, Q117T, A121S
VL: B7 VL with A2T, L10F, T11S, K25T, D32T, T55S, D62S, A86S, E87D
notes: as for B7

koff [3]: 0.00012 s⁻¹
B11: 39D5 Fab (Fab, V domains shown)
VH: B7 VH with V31G, S75A, S78T, A97V, L117T, S121A
VL: B7 VL with A2T, L24V, K25T, A82P, D83E, A86S, E87D, F89Y
notes: as for B7

koff [3]: 0.00016 s⁻¹
B12: 40F1 Fab (Fab, V domains shown)
VH: B7 VH with T57A, L117Q
VL: B7 VL with L10F, T11S
notes: as for B7

koff [3]: 0.00023 s⁻¹
B14: 53F1 Fab (Fab, V domains shown)
VH: B1 VH with D56G, D84N, L93V, I119T
VL: B7 VL with L10F, T11S, A86S, E87D
notes: as for B7

koff [3]: 0.00022 s⁻¹
B18: 41H8 Fab (Fab, V domains shown)
VH: B7 VH with S78T, L117Q, S121A
VL: B7 VL with L10F, T11S, K25T, D32T, T55S, A82P, D83E, A86S, E87D
notes: as for B7

koff [3]: 0.00016 s⁻¹
B19: 42D12 Fab (Fab, V domains shown)
VH: B7 VH with S78T, A97V, L117Q
VL: B7 VL with L10F, T11S, K25T, D32T, D62S
notes: as for B7

koff [3]: 0.00025 s⁻¹
B22: 39C3 Fab (Fab, V domains shown)
VH: B7 VH with E6A, S78T, L117T
VL: B7 VL with L10F, T11S, D62S, A86S, E87D, F89Y
notes: as for B7
